Measured values published in US20240034813A1 (Janssen / Centocor, published 2024).

What was measured:
[1] = target: T1, recombinant human EGFR/ErbB1/HER1 with C-terminal His tag, Cy5-labeled (human, UniProt P00533 25-645, Cy5 label (reacted with Cy5 Mono NHS Ester; sites not stated)); test: competitive TR-FRET (Eu-amivantamab/Cy5-EGFR), EC50 ratio vs Reference Material; Ex. 12 drug product with rHuPH20, 6 months at 5 C
T1 construct: Commercial protein; also called Cy5-EGFR; Cy5-labeled EGFR antigen; not shown: C-terminal His tag
Excerpt: (§1) In this procedure, varying concentrations of unlabeled bispecific EGFR-cMet antibody sample compete with donor fluorophore (Europium (Eu) chelate) labeled bispecific EGFR-cMet antibody for binding to an acceptor fluorophore (Cy5)-labeled EGFR antigen. Excitation of the donor fluorophore results in a transfer of energy to the bound acceptor fluorophore (FRET process). The resultant FRET is detected by emission of light at 665 nm using a microplate reader capable of measuring time-resolved fluorescence. Sample dose response curves are compared to the RM.
(§2) EGFR Binding Materials and Methods. Certified commercial EGFR, a recombinant human EGFR/ErbB1/HER1 with C-terminal His tag is reacted with certified commercial Cy5 Mono NHS Ester to produce Cy5-labeled EGFR. Validated bispecific EGFR-cMet antibody is reacted with certified commercial Europium (Eu) chelate to produce Eu-labeled bispecific EGFR-cMet antibody. […] Fluorescence is then measured by spectrophotometry at 665 nm, plotted against antibody concentration and analyzed by a four-parameter logistic model. The antibody concentration required to obtain half of the maximum fluorescence response (EC50) is determined for RM, assay control and samples. The potencies of assay control and samples are calculated based on the ratio of the sample (or control) and RM EC50 values and reported as a percentage activity relative to the RM.

[2] = target: T1, recombinant human EGFR/ErbB1/HER1 with …; test: competitive TR-FRET (Eu-amivantamab/Cy5-EGFR), EC50 ratio vs Reference Material; Ex. 12 drug product with rHuPH20, 0 months, 5 C table
Excerpt: as §1, §2

[3] = target: T2, recombinant cMet/HGFR with c-terminal His-tag, Cy5-labeled (UniProt P08581 25-932, limits assumed, Cy5 label (reacted with Cy5 Mono NHS Ester; sites not stated)); test: competitive TR-FRET (Eu-amivantamab/Cy5-c-MET), EC50 ratio vs Reference Material; Ex. 11 drug product, 6 months at 25 C
T2 construct: Commercial protein; also called Cy5-c-MET; Cy5-labeled c-MET antigen; not shown: C-terminal His-tag
Excerpt: as §1, with “(Cy5)-labeled c-MET” for “(Cy5)-labeled EGFR”, “the Reference Material (RM).” for “the RM.”
as §2, with “c-MET Binding” for “EGFR Binding”, “commercial cMet,” for “commercial EGFR,”, “recombinant cMet/HGFR” for “recombinant human EGFR/ErbB1/HER1”, “with c-terminal His-tag” for “with C-terminal His tag”, “Cy5-labeled c-MET.” for “Cy5-labeled EGFR.”, “produce Eu labeled” for “produce Eu-labeled”

[4] = target: T1, recombinant human EGFR/ErbB1/HER1 with …; test: competitive TR-FRET (Eu-amivantamab/Cy5-EGFR), EC50 ratio vs Reference Material; Ex. 2 Formulation 2 (50 mM histidine), 3 months at 25 C
Excerpt: as §1, §2

[5] = target: T1, recombinant human EGFR/ErbB1/HER1 with …; test: competitive TR-FRET (Eu-amivantamab/Cy5-EGFR), EC50 ratio vs Reference Material; Ex. 2 Formulation 3 (acetate), T0, 25 C table
Excerpt: as §1, §2

[6] = target: T1, recombinant human EGFR/ErbB1/HER1 with …; test: competitive TR-FRET (Eu-amivantamab/Cy5-EGFR), EC50 ratio vs Reference Material; Ex. 3 acetate formulation, 6 months at 25 C then 5 freeze/thaw cycles
Excerpt: as §1, §2

EGFR Binding activity relative to Reference Material (%) [1]: 89%
EGFR Binding activity relative to Reference Material (%) [2]: 92%
cMET Binding activity relative to Reference Material (%) [3]: 113%
EGFR Binding % activity relative to RM [4]: 77%
EGFR Binding % activity relative to RM [5]: 103%
EGFR Binding % activity relative to RM [6]: 95%
B1: amivantamab (bispecific antibody, human IgG1, kappa)
heavy 1: not shown
light 1: not shown
heavy 2: not shown
light 2: DIQMTQSPSSVSASVGDRVTITCRASQGISNWLAWFQHKPGKAPKLLIYAASSLLSGVPSRFSGSGSGTDFTLTISSLQPEDFATYYCQQANSFPITFGQGTRLEIKRTVAAPSVFIFPPSDEQLKSGTASVVCLLNNFYPREAKVQWKVDNALQSGNSQESVTEQDSKDSTYSLSSTLTLSKADYEKHKVYACEVTHQGLSSPVTKSFNRGEC
notes: The samples tested were high concentration (160 mg/mL) formulations, fresh or stored or stressed; also called JNJ-61186372; bispecific EGFR-cMet antibody
